The supplement of paper PMC10724198
± gives the standard deviation of the averaged measurements.

Test system: Saccharomyces cerevisiae
Assay: protein stability index of tFT-peptide fusion (C-terminal peptide) (PSI (0-1 scale)); higher = more stable (slower turnover)
Settings: genetic background: wild type; temperature: 30 C
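Further: PSI is a weighted mean of sequencing reads over stability bins, variants kept only with over 10 reads, mCherry proximal and sfGFP distal, peptide attached via GGGS linker.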

| Sequence | protein stability index |
| --- | --- |
| PLNSNSYDASPL | 0.658 ± 0.052 |
| KKKKNNKETKNK | 0.705 ± 0.015 |
| MNERDKGKIKKQ | 0.6974 ± 0.0069 |
| KKTRRGSNKKEG | 0.681 ± 0.025 |
| LMGFVASGGDDM | 0.786 ± 0.1 |
| SGDVGGGHWVGG | 0.729 ± 0.013 |
| SPPRAGTPTSRP | 0.667 ± 0.097 |
| SPFRATPYPLLP | 0.6909 ± 0.0031 |
| DCDVLCGSGRRR | 0.703 ± 0.026 |
| LPLPPLPPPSCP | 0.718 ± 0.032 |
| HPPPSPRPPPPP | 0.691 ± 0.039 |
| LCCPVFFAFCFP | 0.683 ± 0.094 |
| WCWTYLRFSVEL | 0.677 ± 0.055 |
| GRKTRSPFLVLM | 0.5707 ± 0.002 |
| FGVVLEGAGWGG | 0.73742 ± 0.00056 |
| AFCVSVLVGLGG | 0.487 ± 0.052 |
| RGRPRRGGGVSG | 0.727 ± 0.047 |
| NHETRNCEGINS | 0.657 ± 0.026 |
| VGWCPLVGGSGQ | 0.753 ± 0.039 |
| VGVLCWLFLGVG | 0.501 ± 0.008 |
| LGVPKDALKMMS | 0.685 ± 0.0078 |
| CCGLYLGAGCAY | 0.674 ± 0.017 |
| KTECMAIEKTLV | 0.686 ± 0.033 |
| HSFPSTLRRCFL | 0.731 ± 0.095 |
| LWGGGVGGVRGV | 0.641 ± 0.027 |

| Sequence | protein stability index |
| --- | --- |
| PKPNRAHSTTHR | 0.691 ± 0.008 |
| CGHMSTSNANLS | 0.687 ± 0.051 |
| LGNANKRPREIK | 0.718 ± 0.032 |
| VPAYLVAARQYY | 0.655 ± 0.012 |
| LNHTRKDSLLTC | 0.667 ± 0.014 |
| KKNIKKKTKQKE | 0.696 ± 0.007 |
| PLSFPALFSPLS | 0.684 ± 0.034 |
| LVCPLGIEGFSM | 0.723 ± 0.034 |
| PRGALMKGYKPG | 0.663 ± 0.1 |
| FLPPPPVLPSLP | 0.697 ± 0.024 |
| LQASRHPASPST | 0.701 ± 0.048 |
| PDRGLRLKRILP | 0.5675 ± 0.0017 |
| KLGLLKVRVCDG | 0.608 ± 0.0061 |
| PRIGRPQSLTFH | 0.621 ± 0.011 |
| VGVWDGCLLGLG | 0.695 ± 0.028 |
| PAVISLLPVWFT | 0.691 ± 0.015 |
| ASPSSAAQPLSP | 0.641 ± 0.099 |
| GWVLRERGRGVG | 0.572 ± 0.07 |
| EDTMGKTASHTR | 0.699 ± 0.019 |
| KGRAERKKDKKR | 0.684 ± 0.025 |
| FTCVVRRGDIQL | 0.675 ± 0.056 |
| RPSPSAQFITCA | 0.646 ± 0.013 |
| IADDSSHGFRGE | 0.7161 ± 0.0064 |
| LSFWGLLSFWTP | 0.594 ± 0.02 |
| IKKRHQNGGKKE | 0.65 ± 0.0085 |

| Sequence | protein stability index |
| --- | --- |
| SVSTDTLQVYAI | 0.658 ± 0.013 |
| FSLSVVGLSRWG | 0.78 ± 0.1 |
| VHRPFDGFSRAG | 0.662 ± 0.011 |
| SSASSLTIYTRG | 0.728 ± 0.024 |
| PDPARSPLTSSY | 0.6569 ± 0.0024 |
| RGYVGVTQVCKN | 0.695 ± 0.043 |
| FLFLTCPFSFSF | 0.633 ± 0.018 |
| QKSCHIADGREL | 0.671 ± 0.022 |
| PTPLPPPPPRPD | 0.715 ± 0.063 |
| PPPPYPSTRHSP | 0.6564 ± 0.0021 |
| PPSLPPRPRPPS | 0.6411 ± 0.0049 |
| VGHRGVQAGGVG | 0.618 ± 0.016 |
| SPCLLTLPVPFL | 0.695 ± 0.017 |
| SGVALFFFPPLL | 0.71 ± 0.039 |
| IHEGIKNENFKR | 0.71 ± 0.0053 |
| SRWTLRTSMDLG | 0.616 ± 0.013 |
| WGGGGRGWGSRG | 0.684 ± 0.057 |
| PPPQPPPSPPPP | 0.67 ± 0.097 |
| VTEGGGGGKGRG | 0.6917 ± 0.0064 |
| SGTPTFTPSYPS | 0.717 ± 0.026 |
| EIERTKNEGEEG | 0.67 ± 0.058 |
| LGPFSVPCDPHF | 0.696 ± 0.04 |
| SGSVLHEFILVV | 0.543 ± 0.028 |
| SPFEASSPQVLT | 0.644 ± 0.0094 |
| THTTIQKTNQNE | 0.703 ± 0.026 |

| Sequence | protein stability index |
| --- | --- |
| RLTLPSQPHAPA | 0.694 ± 0.098 |
| PPFSTPFLPPSS | 0.727 ± 0.072 |
| RSPLNTAPLRNR | 0.682 ± 0.025 |
| PPRRPPRPPPPA | 0.701 ± 0.064 |
| NVEARLARVHWM | 0.73 ± 0.12 |
| LSLPPHSPPLHR | 0.702 ± 0.04 |
| RVYKCNMKNNSK | 0.661 ± 0.018 |
| MPSRTYPSPPLG | 0.693 ± 0.03 |
| DRSTIKIAIHRQ | 0.656 ± 0.056 |
| EKPKEGKNETKK | 0.734 ± 0.042 |
| SLCTSVPEPPFS | 0.687 ± 0.0072 |
| DWWLPLFDWAKL | 0.872 ± 0.025 |
| LVQGPLSQDQPI | 0.656 ± 0.029 |
| CTVWGLWRGWTA | 0.7389 ± 0.0041 |
| VQASFLPGGSVR | 0.7062 ± 0.0039 |
| PPPPPPPPPSSP | 0.701 ± 0.057 |
| RGRFVVGAGRED | 0.67 ± 0.077 |
| SVPTSLCYSFSP | 0.5957 ± 0.0034 |
| RILNADSREHSS | 0.775 ± 0.12 |
| GGGGGAGGDGRG | 0.66 ± 0.022 |
| SLLPQSAGRRPH | 0.666 ± 0.063 |
| EWGAGGVVVGGW | 0.718 ± 0.043 |
| DWFGGSVRVDEN | 0.693 ± 0.055 |
| GRTFPLATAPFL | 0.687 ± 0.085 |
